For experiment [1], the target named is GST-ETO (UniProt Q06455). In words: pull-down.
For experiment [2], the target named is T1, GST-ETO (UniProt Q06455-2 1-577).
T1 sequence (looked up): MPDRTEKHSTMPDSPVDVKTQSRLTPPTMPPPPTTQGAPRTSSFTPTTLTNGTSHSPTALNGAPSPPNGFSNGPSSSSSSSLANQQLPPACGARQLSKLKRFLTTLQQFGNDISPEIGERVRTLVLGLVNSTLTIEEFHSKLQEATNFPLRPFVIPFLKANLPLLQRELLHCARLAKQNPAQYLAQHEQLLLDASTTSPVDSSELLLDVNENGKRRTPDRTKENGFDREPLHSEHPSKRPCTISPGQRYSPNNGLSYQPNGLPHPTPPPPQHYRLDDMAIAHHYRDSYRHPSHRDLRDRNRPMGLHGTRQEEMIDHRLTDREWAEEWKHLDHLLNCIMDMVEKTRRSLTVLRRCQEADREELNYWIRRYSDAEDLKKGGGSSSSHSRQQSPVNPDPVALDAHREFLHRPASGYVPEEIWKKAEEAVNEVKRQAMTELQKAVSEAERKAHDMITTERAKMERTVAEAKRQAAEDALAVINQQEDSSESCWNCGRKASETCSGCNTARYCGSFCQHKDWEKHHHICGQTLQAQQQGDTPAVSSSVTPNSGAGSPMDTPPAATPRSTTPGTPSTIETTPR
Kind of experiment: pull-down.

With “isolated DES domain of E2A, in vitro translated Gal4-DBD fusion (domain or fragment)”, in the experiment with GST-ETO [1], the fold reduction of binding relative to E2A-AD was found to be 4 fold.

B1: E2A-AD1 (amino acids 1-90), in vitro translated (domain or fragment, UniProt P15923 1-90, looked up)
chain: MNQPQRMAPVGTDKELSDLLDFSMMFPLPVTNGKGRPASLAGAQFGGSGLEDRPSSGSWGSGDQSSSSFDPSRTFSEGTHFTESHSSLSS
modifications: 35S label
B1: the “fold reduction of binding relative to E2A-AD” value in the experiment with GST-ETO [2] is roughly 24 fold.

These data come from paper PMC3874172 (Nucleic Acids Research, 2013).
